Source: the RNAGym collection of RNA variant scans (doi:10.1021/acssynbio.7b00057)

B1: Pistol ribozyme (parent)
chain: GGGUCGUUGUUCCAUAAUCGCGUGGAUAUGGCACGCAAGUUUCUACCGGGCACCGUAAAUGUCCGACUGGAGCCGUUCGGGCGGCUAUAAACAGACCUCAGGCCCGAAGCGUGGCGGCACCUGCCGCCGGUGGUAAAAAAGAUCGGAAGAGCACACGUCU

Variants of: B1
Test: aptazyme ON/OFF ratio, guanine; higher = stronger switching; co-transcriptional cleavage with and without guanine

Variant	aptazyme ON/OFF ratio
GGGUCGCUUAUGCAUAAUCGCGUGGAUAUGGCACGCAAGUUUCUACCGGGCACCGUAAAUGUCCGACUGGAGCCGUUCGGGCGGCUAUAAACAGACCUCAGGCCCGAAGCGUGGCGGCACCUGCCGCCGGUGGUAAAAAAGAUCGGAAGAGCACACGUCU	1.47
GGGUCGGUUUCGUAUAAUCGCGUGGAUAUGGCACGCAAGUUUCUACCGGGCACCGUAAAUGUCCGACUGGAGCCGUUCGGGCGGCUAUAAACAGACCUCAGGCCCGAAGCGUGGCGGCACCUGCCGCCGGUGGUAAAAAAGAUCGGAAGAGCACACGUCU	1.37
GGGUCGAGUCACAAUAAUCGCGUGGAUAUGGCACGCAAGUUUCUACCGGGCACCGUAAAUGUCCGACUGGAGCCGUUCGGGCGGCUAUAAACAGACCUCAGGCCCGAAGCGUGGCGGCACCUGCCGCCGGUGGUAAAAAAGAUCGGAAGAGCACACGUCU	1.44
GGGUCGAGGAUAAAUAAUCGCGUGGAUAUGGCACGCAAGUUUCUACCGGGCACCGUAAAUGUCCGACUGGAGCCGUUCGGGCGGCUAUAAACAGACCUCAGGCCCGAAGCGUGGCGGCACCUGCCGCCGGUGGUAAAAAAGAUCGGAAGAGCACACGUCU	1.17
GGGUCGUCCCGCGAUAAUCGCGUGGAUAUGGCACGCAAGUUUCUACCGGGCACCGUAAAUGUCCGACUGGAGCCGUUCGGGCGGCUAUAAACAGACCUCAGGCCCGAAGCGUGGCGGCACCUGCCGCCGGUGGUAAAAAAGAUCGGAAGAGCACACGUCU	1.31
GGGUCGGGCACCCAUAAUCGCGUGGAUAUGGCACGCAAGUUUCUACCGGGCACCGUAAAUGUCCGACUGGAGCCGUUCGGGCGGCUAUAAACAGACCUCAGGCCCGAAGCGUGGCGGCACCUGCCGCCGGUGGUAAAAAAGAUCGGAAGAGCACACGUCU	1.04
GGGUCGGGAGCAGAUAAUCGCGUGGAUAUGGCACGCAAGUUUCUACCGGGCACCGUAAAUGUCCGACUGGAGCCGUUCGGGCGGCUAUAAACAGACCUCAGGCCCGAAGCGUGGCGGCACCUGCCGCCGGUGGUAAAAAAGAUCGGAAGAGCACACGUCU	1.15
GGGUCGAUAGCGCAUAAUCGCGUGGAUAUGGCACGCAAGUUUCUACCGGGCACCGUAAAUGUCCGACUGGAGCCGUUCGGGCGGCUAUAAACAGACCUCAGGCCCGAAGCGUGGCGGCACCUGCCGCCGGUGGUAAAAAAGAUCGGAAGAGCACACGUCU	1.08
GGGUCGGAUUUAUAUAAUCGCGUGGAUAUGGCACGCAAGUUUCUACCGGGCACCGUAAAUGUCCGACUGGAGCCGUUCGGGCGGCUAUAAACAGACCUCAGGCCCGAAGCGUGGCGGCACCUGCCGCCGGUGGUAAAAAAGAUCGGAAGAGCACACGUCU	1.1
GGGUCGCAUUAACAUAAUCGCGUGGAUAUGGCACGCAAGUUUCUACCGGGCACCGUAAAUGUCCGACUGGAGCCGUUCGGGCGGCUAUAAACAGACCUCAGGCCCGAAGCGUGGCGGCACCUGCCGCCGGUGGUAAAAAAGAUCGGAAGAGCACACGUCU	1.19
GGGUCGACCUGUAAUAAUCGCGUGGAUAUGGCACGCAAGUUUCUACCGGGCACCGUAAAUGUCCGACUGGAGCCGUUCGGGCGGCUAUAAACAGACCUCAGGCCCGAAGCGUGGCGGCACCUGCCGCCGGUGGUAAAAAAGAUCGGAAGAGCACACGUCU	1.17
GGGUCGGUGAAUUAUAAUCGCGUGGAUAUGGCACGCAAGUUUCUACCGGGCACCGUAAAUGUCCGACUGGAGCCGUUCGGGCGGCUAUAAACAGACCUCAGGCCCGAAGCGUGGCGGCACCUGCCGCCGGUGGUAAAAAAGAUCGGAAGAGCACACGUCU	1.16
GGGUCGUUCCAGUAUAAUCGCGUGGAUAUGGCACGCAAGUUUCUACCGGGCACCGUAAAUGUCCGACUGGAGCCGUUCGGGCGGCUAUAAACAGACCUCAGGCCCGAAGCGUGGCGGCACCUGCCGCCGGUGGUAAAAAAGAUCGGAAGAGCACACGUCU	1.22
GGGUCGUAUAGAUAUAAUCGCGUGGAUAUGGCACGCAAGUUUCUACCGGGCACCGUAAAUGUCCGACUGGAGCCGUUCGGGCGGCUAUAAACAGACCUCAGGCCCGAAGCGUGGCGGCACCUGCCGCCGGUGGUAAAAAAGAUCGGAAGAGCACACGUCU	1.21
GGGUCGUAACACGAUAAUCGCGUGGAUAUGGCACGCAAGUUUCUACCGGGCACCGUAAAUGUCCGACUGGAGCCGUUCGGGCGGCUAUAAACAGACCUCAGGCCCGAAGCGUGGCGGCACCUGCCGCCGGUGGUAAAAAAGAUCGGAAGAGCACACGUCU	1.07
GGGUCGUGCUACAAUAAUCGCGUGGAUAUGGCACGCAAGUUUCUACCGGGCACCGUAAAUGUCCGACUGGAGCCGUUCGGGCGGCUAUAAACAGACCUCAGGCCCGAAGCGUGGCGGCACCUGCCGCCGGUGGUAAAAAAGAUCGGAAGAGCACACGUCU	1.04
GGGUCGGUUAAUCAUAAUCGCGUGGAUAUGGCACGCAAGUUUCUACCGGGCACCGUAAAUGUCCGACUGGAGCCGUUCGGGCGGCUAUAAACAGACCUCAGGCCCGAAGCGUGGCGGCACCUGCCGCCGGUGGUAAAAAAGAUCGGAAGAGCACACGUCU	1.54
GGGUCGACACGUCAUAAUCGCGUGGAUAUGGCACGCAAGUUUCUACCGGGCACCGUAAAUGUCCGACUGGAGCCGUUCGGGCGGCUAUAAACAGACCUCAGGCCCGAAGCGUGGCGGCACCUGCCGCCGGUGGUAAAAAAGAUCGGAAGAGCACACGUCU	1.23

Variant	aptazyme ON/OFF ratio
GGGUCGCUUACUAAUAAUCGCGUGGAUAUGGCACGCAAGUUUCUACCGGGCACCGUAAAUGUCCGACUGGAGCCGUUCGGGCGGCUAUAAACAGACCUCAGGCCCGAAGCGUGGCGGCACCUGCCGCCGGUGGUAAAAAAGAUCGGAAGAGCACACGUCU	1.23
GGGUCGCUGCCCGAUAAUCGCGUGGAUAUGGCACGCAAGUUUCUACCGGGCACCGUAAAUGUCCGACUGGAGCCGUUCGGGCGGCUAUAAACAGACCUCAGGCCCGAAGCGUGGCGGCACCUGCCGCCGGUGGUAAAAAAGAUCGGAAGAGCACACGUCU	1.14
GGGUCGGACUGCUAUAAUCGCGUGGAUAUGGCACGCAAGUUUCUACCGGGCACCGUAAAUGUCCGACUGGAGCCGUUCGGGCGGCUAUAAACAGACCUCAGGCCCGAAGCGUGGCGGCACCUGCCGCCGGUGGUAAAAAAGAUCGGAAGAGCACACGUCU	1.04
GGGUCGGUACAGAAUAAUCGCGUGGAUAUGGCACGCAAGUUUCUACCGGGCACCGUAAAUGUCCGACUGGAGCCGUUCGGGCGGCUAUAAACAGACCUCAGGCCCGAAGCGUGGCGGCACCUGCCGCCGGUGGUAAAAAAGAUCGGAAGAGCACACGUCU	1.11
GGGUCGACAUAAAAUAAUCGCGUGGAUAUGGCACGCAAGUUUCUACCGGGCACCGUAAAUGUCCGACUGGAGCCGUUCGGGCGGCUAUAAACAGACCUCAGGCCCGAAGCGUGGCGGCACCUGCCGCCGGUGGUAAAAAAGAUCGGAAGAGCACACGUCU	1.31
GGGUCGUCUUCCGAUAAUCGCGUGGAUAUGGCACGCAAGUUUCUACCGGGCACCGUAAAUGUCCGACUGGAGCCGUUCGGGCGGCUAUAAACAGACCUCAGGCCCGAAGCGUGGCGGCACCUGCCGCCGGUGGUAAAAAAGAUCGGAAGAGCACACGUCU	1.03
GGGUCGACGUAUCAUAAUCGCGUGGAUAUGGCACGCAAGUUUCUACCGGGCACCGUAAAUGUCCGACUGGAGCCGUUCGGGCGGCUAUAAACAGACCUCAGGCCCGAAGCGUGGCGGCACCUGCCGCCGGUGGUAAAAAAGAUCGGAAGAGCACACGUCU	1.23
GGGUCGAGAAACGAUAAUCGCGUGGAUAUGGCACGCAAGUUUCUACCGGGCACCGUAAAUGUCCGACUGGAGCCGUUCGGGCGGCUAUAAACAGACCUCAGGCCCGAAGCGUGGCGGCACCUGCCGCCGGUGGUAAAAAAGAUCGGAAGAGCACACGUCU	1.17
GGGUCGUCCGUAGAUAAUCGCGUGGAUAUGGCACGCAAGUUUCUACCGGGCACCGUAAAUGUCCGACUGGAGCCGUUCGGGCGGCUAUAAACAGACCUCAGGCCCGAAGCGUGGCGGCACCUGCCGCCGGUGGUAAAAAAGAUCGGAAGAGCACACGUCU	1.08
GGGUCGCACUUGCAUAAUCGCGUGGAUAUGGCACGCAAGUUUCUACCGGGCACCGUAAAUGUCCGACUGGAGCCGUUCGGGCGGCUAUAAACAGACCUCAGGCCCGAAGCGUGGCGGCACCUGCCGCCGGUGGUAAAAAAGAUCGGAAGAGCACACGUCU	1.13
GGGUCGUACUUUUAUAAUCGCGUGGAUAUGGCACGCAAGUUUCUACCGGGCACCGUAAAUGUCCGACUGGAGCCGUUCGGGCGGCUAUAAACAGACCUCAGGCCCGAAGCGUGGCGGCACCUGCCGCCGGUGGUAAAAAAGAUCGGAAGAGCACACGUCU	1.2
GGGUCGGGGCUAUAUAAUCGCGUGGAUAUGGCACGCAAGUUUCUACCGGGCACCGUAAAUGUCCGACUGGAGCCGUUCGGGCGGCUAUAAACAGACCUCAGGCCCGAAGCGUGGCGGCACCUGCCGCCGGUGGUAAAAAAGAUCGGAAGAGCACACGUCU	1.28
GGGUCGACUCCUCAUAAUCGCGUGGAUAUGGCACGCAAGUUUCUACCGGGCACCGUAAAUGUCCGACUGGAGCCGUUCGGGCGGCUAUAAACAGACCUCAGGCCCGAAGCGUGGCGGCACCUGCCGCCGGUGGUAAAAAAGAUCGGAAGAGCACACGUCU	1.06
GGGUCGGAGUGUUAUAAUCGCGUGGAUAUGGCACGCAAGUUUCUACCGGGCACCGUAAAUGUCCGACUGGAGCCGUUCGGGCGGCUAUAAACAGACCUCAGGCCCGAAGCGUGGCGGCACCUGCCGCCGGUGGUAAAAAAGAUCGGAAGAGCACACGUCU	1.17
GGGUCGAUAACGGAUAAUCGCGUGGAUAUGGCACGCAAGUUUCUACCGGGCACCGUAAAUGUCCGACUGGAGCCGUUCGGGCGGCUAUAAACAGACCUCAGGCCCGAAGCGUGGCGGCACCUGCCGCCGGUGGUAAAAAAGAUCGGAAGAGCACACGUCU	1.42
GGGUCGUGAGUCCAUAAUCGCGUGGAUAUGGCACGCAAGUUUCUACCGGGCACCGUAAAUGUCCGACUGGAGCCGUUCGGGCGGCUAUAAACAGACCUCAGGCCCGAAGCGUGGCGGCACCUGCCGCCGGUGGUAAAAAAGAUCGGAAGAGCACACGUCU	2.04
GGGUCGGGCCUUCAUAAUCGCGUGGAUAUGGCACGCAAGUUUCUACCGGGCACCGUAAAUGUCCGACUGGAGCCGUUCGGGCGGCUAUAAACAGACCUCAGGCCCGAAGCGUGGCGGCACCUGCCGCCGGUGGUAAAAAAGAUCGGAAGAGCACACGUCU	1.38
GGGUCGAUCACUGAUAAUCGCGUGGAUAUGGCACGCAAGUUUCUACCGGGCACCGUAAAUGUCCGACUGGAGCCGUUCGGGCGGCUAUAAACAGACCUCAGGCCCGAAGCGUGGCGGCACCUGCCGCCGGUGGUAAAAAAGAUCGGAAGAGCACACGUCU	1.13
